The target in assay [1] is TNF-alpha. The assay can be described thus: cell-based or functional assay.
For assay [2], the target named is TNF-alpha. In words: Biacore 3000 SPR; Fc fusion loaded into the flow cell, exposed to TNF.

The record followed here is US20130084291A1.

In the case of D47N S202N TNFR2-h(1)Fc (Fc fusion), the IC50 (WEHI Assay), normalized to TNFR-h(1)Fc wt (fold of wt (normalized)) with TNF-alpha [1] came out at 1.1. Also, the KD (TNF-alpha), normalized to TNFR-h(1)Fc wt (fold of wt (normalized)) with TNF-alpha [2] amounted to 4.4.
On the same counts, the results for D47N TNFR2-h(1)Fc (Fc fusion) are 1.9 and 1.6.
The corresponding values for D47N/E155N TNFR2-h(1)Fc (Fc fusion) are 1.6 and 2.6.
On the same counts, the results for D47N/G253N TNFR2-h(1)Fc (Fc fusion) are 3 and 55.
As for E155N G253N TNFR2-h(1)Fc (Fc fusion), the IC50 (WEHI Assay), normalized to TNFR-h(1)Fc wt (fold of wt (normalized)) with TNF-alpha [1] was determined as 0.57. The KD (TNF-alpha), normalized to TNFR-h(1)Fc wt (fold of wt (normalized)) with TNF-alpha [2] was 3.6.
The corresponding values for “E155N S202N G253N TNFR2-h(1)Fc (Fc fusion)” are 0.25 and 1.
On the same counts, the results for S202N G253N TNFR2-h(1)Fc (Fc fusion) are 0.23 and 1.05.
The corresponding values for T203N P205S TNFR2-h(1)Fc (Fc fusion) are 0.29 and 0.33.
Turning to T222N TNFR2-h(1)Fc (Fc fusion), in the assay with TNF-alpha [1], the IC50 (WEHI Assay), normalized to TNFR-h(1)Fc wt (fold of wt (normalized)) is 0.25. Further, the KD (TNF-alpha), normalized to TNFR-h(1)Fc wt (fold of wt (normalized)) with TNF-alpha [2] was 0.78.
